Source: paper PMC10925265 (bioRxiv, 2024)

Key:
[1] = biological target: calpain-3 (C129A) ΔNS&IS1 (human) (UniProt P20807); assay: SEC-MALS
native gel or EMSA = biological target: the molecule itself; assay: native gel or EMSA
SEC-SAXS = biological target: the molecule itself; assay: SEC-SAXS
SEC-MALS = biological target: the molecule itself; assay: SEC-MALS

titin N2A region I81-I83 fragment (without His-tag) (domain or fragment)
stoichiometry N (titin per calpain-3) [1]: 2

B1: calpain-3 (C129A) ΔNS&IS1 (enzyme, human, UniProt P20807-1 1-821, looked up)
chain: MISRNFPIIGVKEKTFEQLHKKCLEKKVLYVDPEFPPDETSLFYSQKFPIQFVWKRPPEICENPRFIIDGANRTDICQGELGDAWFLAAIACLTLNQHLLFRVIPHDQSFIENYAGIFHFQFWRYGEWVDVVIDDCLPTYNNQLVFTKSNHRNEFWSALLEKAYAKLHGSYEALKGGNTTEAMEDFTGGVAEFFEIRDAPSDMYKIMKKAIERGSLMGCSIDTIIPVQYETRMACGLVRGHAYSVTGLDEVPFKGEKVKLVRLRNPWGQVEWNGSWSDRWKDWSFVDKDEKARLQHQVTEDGEFWMSYEDFIYHFTKLEICNLTADALQSDKLQTWTVSVNEGRWVRGCSAGGCRNFPDTFWTNPQYRLKLLEEDDDPDDSEVICSFLVALMQKNRRKDRKLGASLFTIGFAIYEVPKEMHGNKQHLQKDFFLYNASKARSKTYINMREVSQRFRLPPSEYVIVPSTYEPHQEGEFILRVFSEKRNLSEEVENTISVDRPVKKKKTKPIIFVSDRANSNKELGVDQESEEGKGKTSPDKQKQSPQPQPGSSDQESEEQQQFRNIFKQIAGDDMEICADELKKVLNTVVNKHKDLKTHGFTLESCRSMIALMDTDGSGKLNLQEFHHLWNKIKAWQKIFKHYDTDQSGTINSYEMRNAVNDAGFHLNNQLYDIITMRYADKHMNIDFDSFICCFVRLEGMFRAFHAFDKDGDGIIKLNVLEWLQLTMYA
stoichiometry N (native gel or EMSA): 2 | stoichiometry N (SEC-SAXS): 6 | stoichiometry N (SEC-MALS): 5
